Test results from PMC3958868, “The Proteasome Activator PA28γ, a Negative Regulator of p53, Is Transcriptionally Up-Regulated by p53”.

B1: RE1 mutant (dsDNA)
DNA 1: TTATCGCTTGAAATACTTGTAT
DNA 2: ATACAAGTATTTCAAGCGATAA
B2: RE2 wild-type (dsDNA)
DNA 1: GTGCATGAAGAGGTATAGTCTCATGCTT
DNA 2: AAGCATGAGACTATACCTCTTCATGCAC
B3: RE1 wild-type (dsDNA)
DNA 1: TTACATGTTGAAATACTTGTAT
DNA 2: ATACAAGTATTTCAACATGTAA
B4: RE2 mutant (dsDNA)
DNA 1: GTGTCGCAAGAGGTATAGTCTCATGCTT
DNA 2: AAGCATGAGACTATACCTCTTGCGACAC

These binders were tested against p53 (UniProt P04637 1-393) (assay: biotinylated DNA pull-down, western blot; 10 mM Tris-HCl pH 8.0, 40 mM KCl, 1 mM DTT, 6% glycerol, 0.05% NP-40; overnight at 4 °C; 20 µg p53, 1 µg biotinylated oligo; beads washed with Tris-EDTA (100 mM NaCl), binding buffer, PBS). Conditions: protein: recombinant; chain copies: 4; label: biotin.
p53, sequence (P04637 whole entry): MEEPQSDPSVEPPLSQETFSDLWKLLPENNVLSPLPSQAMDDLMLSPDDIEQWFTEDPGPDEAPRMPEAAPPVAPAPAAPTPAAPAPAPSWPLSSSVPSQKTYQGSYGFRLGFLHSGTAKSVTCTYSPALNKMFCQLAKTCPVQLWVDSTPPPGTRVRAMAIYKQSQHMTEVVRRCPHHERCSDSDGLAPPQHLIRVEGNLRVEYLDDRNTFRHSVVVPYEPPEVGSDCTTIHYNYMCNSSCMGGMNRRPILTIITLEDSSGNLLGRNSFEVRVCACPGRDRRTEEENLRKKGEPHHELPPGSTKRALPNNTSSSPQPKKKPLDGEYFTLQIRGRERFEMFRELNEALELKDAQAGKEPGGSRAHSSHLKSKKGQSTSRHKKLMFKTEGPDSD

Question: Does B1 bind?
Answer: Result: no binding

Question: Does B2 bind?
Answer: Result: binds

Question: Does B3 bind?
Answer: Result: binds

Question: Does B4 bind?
Answer: Result: no binding
